“And” between values parts separate entries of the source, which are not always exact repeats. Equal values may be shown once.
Assays:
[1] = molecular target: EVA-A(Y44A) (Amblyomma americanum); assay: SPR
[2] = molecular target: EVA-A(DN) (Amblyomma americanum); assay: SPR
[3] = molecular target: EVA-A(L39P) (Amblyomma americanum); assay: SPR
[4] = molecular target: EVA-A(DC) (Amblyomma americanum); assay: SPR
[5] = molecular target: EVA-A(C8) (Amblyomma americanum); assay: SPR
EVA-4 = EVA-4 (UniProt P0C8E9); assay: not stated; Kd of EVA-4 for human chemokines, three readings (source data of Supplementary Fig. 7); method and conditions not told for EVA-4
[6] = molecular target: EVA-A(1-98) (A. americanum); assay: SPR
[7] = molecular target: EVA-A(21-102) (A. americanum); assay: SPR
[8] = molecular target: EVA-A(L39P) (A. americanum); assay: SPR
[9] = molecular target: EVA-A(C8) (A. americanum); assay: SPR
[10] = molecular target: EVA-A(Y44A) (A. americanum); assay: SPR

Chain of CCL19 (Q99731 22-98): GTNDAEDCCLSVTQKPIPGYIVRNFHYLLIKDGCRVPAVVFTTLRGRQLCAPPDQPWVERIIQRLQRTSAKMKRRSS
Chain of CCL18 (P55774 21-89): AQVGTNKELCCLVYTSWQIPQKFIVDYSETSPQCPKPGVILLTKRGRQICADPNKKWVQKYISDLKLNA
Chain of CCL13, Q99616 17-98 (ligand; other documents disagree on this pair) (Q99616 17-98): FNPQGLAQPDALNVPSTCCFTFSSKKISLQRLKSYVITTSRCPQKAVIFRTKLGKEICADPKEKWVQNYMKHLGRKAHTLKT

For CCL23 (ligand), the Kd [1] was 15.2 nM and 26.4 nM and 14.7 nM, the koff [1] was 0.00168 s⁻¹ and 0.00185 s⁻¹ and 0.00176 s⁻¹ and the kon [1] was 111000 M⁻¹ s⁻¹ and 70100 M⁻¹ s⁻¹ and 120000 M⁻¹ s⁻¹. The Kd [2] was 0.168 nM and 0.972 nM and 0.384 nM, the kon [2] was 53100 M⁻¹ s⁻¹ and 56200 M⁻¹ s⁻¹ and 152000 M⁻¹ s⁻¹ and the Kd [3] was 1.15 nM and 0.794 nM and 1.49 nM. The koff [3] was 0.000123 s⁻¹ and 0.00016 s⁻¹ and 0.000168 s⁻¹, the kon [3] was 107000 M⁻¹ s⁻¹ and 201000 M⁻¹ s⁻¹ and 113000 M⁻¹ s⁻¹ and the Kd [4] was 0.105 nM and 0.44 nM and 0.794 nM. The kon [4] was 144000 M⁻¹ s⁻¹ and 85600 M⁻¹ s⁻¹ and 201000 M⁻¹ s⁻¹, the Kd [5] was 13 nM and 34.4 nM and 13.6 nM and the koff [5] was 0.00116 s⁻¹ and 0.00157 s⁻¹ and 0.0012 s⁻¹. For the same substance, the kon [5] was 89700 M⁻¹ s⁻¹ and 45800 M⁻¹ s⁻¹ and 87600 M⁻¹ s⁻¹ and the Kd (EVA-4) was 7.43 nM and 7.41 nM and 7.39 nM.

For “CCL16 (from UniProt O15467 24-120) (ligand)”, the Kd [1] was 0.181 nM and 0.268 nM and 0.148 nM, the koff [1] was 0.0001 s⁻¹ and 0.000143 s⁻¹ and 0.000134 s⁻¹ and the kon [1] was 552000 M⁻¹ s⁻¹ and 534000 M⁻¹ s⁻¹ and 906000 M⁻¹ s⁻¹. The Kd [2] was 0.223 nM and 0.225 nM and 0.22 nM, the koff [2] was 0.000191 s⁻¹ and 0.000182 s⁻¹ and 0.000181 s⁻¹ and the kon [2] was 858000 M⁻¹ s⁻¹ and 809000 M⁻¹ s⁻¹ and 826000 M⁻¹ s⁻¹. For the same substance, the Kd [6] was < 0.1 nM, the koff [6] was < 0.0001 s⁻¹ and the kon [6] was 258000 M⁻¹ s⁻¹. For the same substance, the Kd [7] was 0.22 nM, the koff [7] was 0.00019 s⁻¹ and the kon [7] was 831000 M⁻¹ s⁻¹. The Kd [8] was 0.17 nM, the koff [8] was 0.00016 s⁻¹ and the kon [8] was 1.18e+06 M⁻¹ s⁻¹. For the same substance, the Kd [3] was 0.188 nM and 0.138 nM, the koff [3] was 0.000226 s⁻¹ and 0.000159 s⁻¹ and the kon [3] was 1.2e+06 M⁻¹ s⁻¹ and 1.15e+06 M⁻¹ s⁻¹. The Kd [4] was 0.000499 nM and 0.00352 nM and 0.00269 nM, the kon [4] was 256000 M⁻¹ s⁻¹ and 253000 M⁻¹ s⁻¹ and 265000 M⁻¹ s⁻¹ and the Kd [5] was 1.95 nM and 1.84 nM. The koff [5] was 0.000666 s⁻¹ and 0.000831 s⁻¹, the kon [5] was 341000 M⁻¹ s⁻¹ and 451000 M⁻¹ s⁻¹ and the Kd [9] was 1.9 nM. For the same substance, the koff [9] was 0.00075 s⁻¹, the kon [9] was 396000 M⁻¹ s⁻¹ and the Kd [10] was 0.2 nM. For the same substance, the koff [10] was 0.00013 s⁻¹, the kon [10] was 664000 M⁻¹ s⁻¹ and the Kd (EVA-4) was 2.31 nM and 4.95 nM and 5 nM.

For “CCL13, Q99616 17-98 (ligand; other documents disagree on this pair)”, the Kd (EVA-4) was 258 nM and 234 nM and 267 nM.

With “CCL18 (from UniProt P55774 21-89) (ligand)” the Kd [1] was 0.0553 nM and 0.0303 nM and 0.0163 nM, the koff [1] was 7.08e-05 s⁻¹ and 5.3e-05 s⁻¹ and 3.33e-05 s⁻¹ and the kon [1] was 1.28e+06 M⁻¹ s⁻¹ and 1.75e+06 M⁻¹ s⁻¹ and 2.05e+06 M⁻¹ s⁻¹. The Kd [2] was 0.000563 nM and 0.000228 nM and 0.000552 nM, the koff [2] was 1.04e-06 s⁻¹ and 4.52e-07 s⁻¹ and 5.08e-07 s⁻¹ and the kon [2] was 1.86e+06 M⁻¹ s⁻¹ and 1.98e+06 M⁻¹ s⁻¹ and 921000 M⁻¹ s⁻¹. The Kd [6] was < 0.1 nM, the koff [6] was < 0.0001 s⁻¹ and the kon [6] was 443000 M⁻¹ s⁻¹. The Kd [7] was < 0.1 nM, the koff [7] was < 0.0001 s⁻¹ and the kon [7] was 1.59e+06 M⁻¹ s⁻¹. For the same substance, the Kd [8] was < 0.1 nM, the koff [8] was < 0.0001 s⁻¹ and the kon [8] was 3.74e+06 M⁻¹ s⁻¹. For the same substance, the Kd [3] was 0.00439 nM and 0.00871 nM and 0.0273 nM, the kon [3] was 3.31e+06 M⁻¹ s⁻¹ and 3.54e+06 M⁻¹ s⁻¹ and 4.37e+06 M⁻¹ s⁻¹ and the Kd [4] was 0.00073 nM and 0.00413 nM and 0.00277 nM. For the same substance, the kon [4] was 496000 M⁻¹ s⁻¹ and 427000 M⁻¹ s⁻¹ and 406000 M⁻¹ s⁻¹, the Kd [5] was 0.0591 nM and 0.0302 nM and 0.0473 nM and the koff [5] was 5.57e-05 s⁻¹ and 2.29e-05 s⁻¹ and 3.83e-05 s⁻¹. For the same substance, the kon [5] was 943000 M⁻¹ s⁻¹ and 758000 M⁻¹ s⁻¹ and 810000 M⁻¹ s⁻¹, the Kd [9] was < 0.1 nM and the koff [9] was < 0.0001 s⁻¹. The kon [9] was 837000 M⁻¹ s⁻¹, the Kd [10] was < 0.1 nM and the koff [10] was < 0.0001 s⁻¹. For the same substance, the kon [10] was 1.69e+06 M⁻¹ s⁻¹.

In the case of “CCL19 (from UniProt Q99731 22-98) (ligand)”, the Kd [1] is reported as 0.676 nM and 0.642 nM and 0.935 nM, the koff [1] is reported as 0.000322 s⁻¹ and 0.000363 s⁻¹ and 0.000401 s⁻¹ and the kon [1] is reported as 477000 M⁻¹ s⁻¹ and 566000 M⁻¹ s⁻¹ and 428000 M⁻¹ s⁻¹. For the same substance, the Kd [2] was 1.34 nM and 1.49 nM and 1.92 nM, the koff [2] was 0.000471 s⁻¹ and 0.000557 s⁻¹ and 0.000576 s⁻¹ and the kon [2] was 352000 M⁻¹ s⁻¹ and 373000 M⁻¹ s⁻¹ and 301000 M⁻¹ s⁻¹. The Kd [6] was 0.16 nM, the koff [6] was 3e-05 s⁻¹ and the kon [6] was 144000 M⁻¹ s⁻¹. For the same substance, the Kd [7] was 1.58 nM, the koff [7] was 0.00053 s⁻¹ and the kon [7] was 342000 M⁻¹ s⁻¹. The Kd [8] was 1.34 nM, the koff [8] was 0.00036 s⁻¹ and the kon [8] was 278000 M⁻¹ s⁻¹. The Kd [3] was 1.4 nM and 1 nM and 1.62 nM, the koff [3] was 0.000327 s⁻¹ and 0.000349 s⁻¹ and 0.000407 s⁻¹ and the kon [3] was 233000 M⁻¹ s⁻¹ and 348000 M⁻¹ s⁻¹ and 252000 M⁻¹ s⁻¹. For the same substance, the Kd [4] was 0.209 nM and 0.0874 nM and 0.187 nM, the koff [4] was 3.17e-05 s⁻¹ and 1.17e-05 s⁻¹ and 2.75e-05 s⁻¹ and the kon [4] was 151000 M⁻¹ s⁻¹ and 134000 M⁻¹ s⁻¹ and 147000 M⁻¹ s⁻¹. The Kd [5] was 13.2 nM and 15.6 nM and 19.7 nM, the Kd [9] was 16.1 nM and the koff [9] was 0.00345 s⁻¹. The kon [9] was 245000 M⁻¹ s⁻¹, the Kd [10] was 0.75 nM and the koff [10] was 0.00036 s⁻¹. The kon [10] was 490000 M⁻¹ s⁻¹.

Reference: article PMC10349104
